Consider 1 molecule from article PMC9288427, “The CIP2A-TOPBP1 complex safeguards chromosomal stability during mitosis” (Nature Communications, 2022).

The assay has as its target T1, GST-tagged CIP2A Armadillo repeat domain (ArmRD, aa 1-559) (human, UniProt Q8TCG1 1-559).
T1 construct: CIP2A, human, aa 1-559 (bases 1 through 1677 of the full length cDNA) cloned into pGEX-4T3; the results give the ArmRD as amino acids 1-560; the methods give the construct as aa 1-559; also called GST-ArmRP of CIP2A; GST-tagged ArmRD
In words: pull-down; 800 µg CHO protein extract with HA-TOPBP1 aa740-899 bound to anti-HA agarose beads (1 h, 4 °C), unbound fraction washed away, 5 µg purified GST-tagged ArmRD added for 90 min at 4 °C, washed 3 x 15 min with cold PBS; Western blot. The note with it: both partners purified. A general note: In western blotting, separated proteins are transferred to a membrane and probed.

B1: HA-tagged TOPBP1 aa740-899 fragment expressed in ExpiCHO-S cells (domain or fragment, human, UniProt Q92547 740-899, looked up)
chain: NSTKEERSLETEITNGINLNSDTAEHPGTRLQTHRKTVVTPLDMNRFQSKAFRAVVSQHARQVAASPAVGQPLQKEPSLHLDTPSKFLSKDKLFKPSFDVKDALAALETPGRPSQQKRKPSTPLSEVIVKNLQLALANSSRNAVALSASPQLKEAQSEKE
notes: Same construct as m1, other host; source: ExpiCHO-S, transfected; not shown: HA, N-terminal, kept
For the molecule B1, the binding result was “binds”.
